This is an account of results in patent US12540197B2, “Anti-tissue factor antibodies and antibody conjugates, compositions comprising anti-tissue factor antibodies or antibody conjugates, and methods of making and using anti-tissue factor antibodies and antibody conjugates” (SUTRO BIOPHARMA, INC., priority 2023, dated 2026).

Residue numbers refer to the chain shown, from its start.

Data set [1] is described as follows: DSF protein thermal shift assay (melting temperatures TM1/TM2). The class given is physicochemical. The conditions noted are these: Table 8, humanized rabbit antibodies; TM2 = Fab domain. How it is done:
(§1) A protein thermal shift assay was carried out by mixing the protein to be assayed with an environmentally sensitive dye (SYPRO Orange, Life Technologies #S-6650) and monitoring the fluorescence of the mixture in real time as it underwent controlled thermal denaturation. Protein solutions between 0.2-2 mg/mL were mixed at a 1:1 volumetric ratio with a solution of SYPRO Orange solution diluted 250-fold in PBS+10% sucrose. 10 μL aliquots of the protein-dye mixture were dispensed in quadruplicate in a 384-well microplate (Bio-Rad #MSP-3852). The plate was sealed with an optically clear sealing film (Bio-Rad #MSB-1001) and placed in a 384-well plate real-time thermocycler (Bio-Rad CFX384 Real Time System). The protein-dye mixture was heated from 25° C. to 95° C., at increments of 0.2° C. per cycle, allowing 3 seconds of equilibration at each temperature before taking a fluorescence measurement. At the end of the experiment, the transition melting temperatures (TM1 and TM2) were determined using the Bio-Rad CFX manager software. TM1 represents the melting temperature of the Fc domain. TM2 represents the melting temperature of the Fab domain.
as §1, with “solutions at 1” for “solutions between 0.2-2”, “a 1-1” for “a 1:1”, “sucrose. 5” for “sucrose. 10”

Another data set concerns the target T1, human TF (Homo sapiens, UniProt P13726).
T1 construct: purchased Lake Pharma
As to the kind of experiment: Biacore off-rate and kinetic binding, human TF. The conditions noted are these: Table 11, humanized rabbit antibodies; 100 nM antigen, 25° C. As for the experimental part: (§2) Anti-Fc polyclonal antibodies were immobilized onto a CM4 chip (Cytiva #BR100534) using amine coupling chemistry (Human Antibody Capture Kit, Cytiva #BR100839). The immobilization steps were carried out at a flow rate of 25 μL/min in 1×HBS-EP+buffer (Cytiva #BR100669). The sensor surfaces were activated for 7 min with a mixture of N-hydroxysuccinimide (NHS, 0.05 M) and 1-ethyl-3-(3-dimethylaminopropyl)-carbodiimide (EDC, 0.2 M). The anti-Fc polyclonal antibodies were injected over all 4 flow cells at a concentration of 25 μg/mL in 10 mM sodium acetate, pH 4.5, for 7 min. Ethanolamine (1 M, pH 8.5) was injected for 7 min to block any remaining activated groups. Approximately 6,000 response units (RU) of capture antibody was immobilized on each flow cell.
(§3) Off-rate and kinetic binding experiments were performed at 25° C. using 1×HBS-EP+buffer. Antibodies were injected over the anti-Fc surface at a concentration of 3 μg/mL for 12 seconds at a flow rate of 10 μL/min on flow cells 2, 3 and 4, followed by a buffer wash for 30 seconds at the same flow rate. Single point off-rate analysis was carried out using an antigen concentration of 100 nM. […] After capturing ligand (antibody) on the anti-Fc surface, the analyte (human TF, Lake Pharma; cynomolgus TF, Sino Bio #90885-C08H; mouse TF, R&D Systems #3178-PA) was bound for 180 seconds, followed by a 420 second dissociation phase at a flow rate of 50 μL/min. Between each ligand capture and analyte binding cycle, regeneration was carried out using 2 injections of 10 mM glycine pH 2.0 for 30 seconds at 30 μL/min, followed by a 30 second buffer wash step.
(§4) The data were fit with the Biacore T200 Evaluation software, using a 1:1 Langmuir binding model. KD (affinity, nM) was determined as a ratio of the kinetic rate constants calculated from the fits of the association and dissociation phases.
(§5) Anti-Fc polyclonal antibodies were immobilized onto a CM4 chip (Cytiva #BR100534) using amine coupling chemistry (Human Antibody Capture Kit, Cytiva #BR100839). The immobilization steps were carried out at a flow rate of 25 μL/min in 1×HBS-EP+buffer (Cytiva #BR100669). The sensor surfaces were activated for 7 min with a mixture of NHS (0.05 M) and EDC (0.2 M). The Anti-Fc antibodies were injected over all 4 flow cells at a concentration of 25 ug/ml in 10 mM sodium acetate, pH 4.5, for 7 min. Ethanolamine (1 M, pH 8.5) was injected for 7 min to block any remaining activated groups. Approximately 6,000 response units (RU) of capture antibody was immobilized on each flow cell. Off-rate and kinetic binding experiments were performed at 25° C. using 1×HBS-EP+buffer. Antibodies or ADCs were injected over the anti-Fc surface at a concentration of 3 μg/mL for 12 seconds at a flow rate of 10 μL/min on flow cells 2, 3 and 4, followed by a buffer wash for 30 seconds at the same flow rate. […] After capturing ligand (antibody) on the anti-Fc surface, the analyte (human TF, Lake Pharma; cynomolgus TF, Sino Bio #90885-C08H; mouse TF, R&D Systems #3178-PA) was bound for 180 seconds, followed by a 420 second dissociation phase at a flow rate of 50 μL/min. Between each ligand capture and analyte binding cycle, regeneration was carried out using 2 injections of 10 mM Glycine pH 2.0 for 30 seconds at 30 μL/min, followed by a 30 second buffer wash step. The data was fit with the Biacore T200 Evaluation software, using a 1-1 Langmuir binding model. KD (affinity, nM) was determined as a ratio of the kinetic rate constants calculated from the fits of the association and dissociation phases.

The next data set concerns cynomolgus TF. As to the kind of experiment: Biacore off-rate and kinetic binding, cynomolgus TF. The conditions noted are these: Table 11, humanized rabbit antibodies; 100 nM antigen, 25° C. As for the experimental part: as §2, §3, §4, §5
Chain of cynomolgus TF (as listed by the source): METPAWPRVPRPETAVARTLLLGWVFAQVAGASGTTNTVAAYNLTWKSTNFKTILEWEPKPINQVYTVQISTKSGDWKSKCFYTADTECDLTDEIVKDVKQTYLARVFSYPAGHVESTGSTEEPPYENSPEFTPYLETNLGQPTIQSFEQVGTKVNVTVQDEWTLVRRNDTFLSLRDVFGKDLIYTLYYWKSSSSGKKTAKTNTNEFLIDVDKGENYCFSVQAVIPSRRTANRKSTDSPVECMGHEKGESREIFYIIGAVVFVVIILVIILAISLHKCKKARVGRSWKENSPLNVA
The next data set relates to BxPC3 cells. As to the kind of experiment: Secondary ADC cell killing assay (antibody + anti-human Fc nanobody conjugated to SC236) on BxPC3. It counts as cell-based. The conditions noted are these: Table 17; nanobody-SC236 20 nM, 120 hrs. As for the experimental part:
The internalization ability of the lead antibodies was evaluated by an ADC cell killing assay on Tissue Factor positive BxPC3 cells. A total of 625 cells in a volume of 25 μL were seeded in each well of a 384-well flat bottom white polystyrene plate. Lead antibodies were formulated at 4-fold starting concentration in the cell culture medium and filtered through MultiScreenHTS 96-Well Filter Plates (Millipore; Billerica, Massachusetts). 12.5 μL of antibody was added into each treatment well, and 12.5 μL of anti-human Fc nanobody conjugated to SC236 was then added into each well at a fixed final concentration of 20 nM. Assay plates were cultured at 37° C. in a CO2 incubator for 120 hrs before assay. For cell viability measurement, 30 μL of Cell Titer-Glo® reagent (Promega Corp. Madison, WI) was added into each well, and plates were processed as per product instructions. Relative luminescence was measured on an ENVISION® plate reader (Perkin-Elmer; Waltham, MA). Relative luminescence readings were converted to percent viability using untreated cells as controls. Data was fitted with non-linear regression analysis, using a log (inhibitor) vs. response-variable slope, 4 parameter fit with GraphPad Prism (GraphPad v 5.0, Software; San Diego, California).

T1 sequence (P13726 33-295): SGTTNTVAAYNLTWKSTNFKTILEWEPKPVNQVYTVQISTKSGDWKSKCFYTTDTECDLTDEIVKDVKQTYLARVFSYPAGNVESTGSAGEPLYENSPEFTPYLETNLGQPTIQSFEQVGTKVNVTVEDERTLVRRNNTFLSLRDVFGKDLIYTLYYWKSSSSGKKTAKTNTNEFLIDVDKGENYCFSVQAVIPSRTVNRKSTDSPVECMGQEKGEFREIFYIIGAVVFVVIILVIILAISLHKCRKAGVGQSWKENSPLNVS

B1: 2842-G04 HC2/LC2 (antibody)
heavy: MQVQVQESGPGLVKPPGTLSLTCAVSGFSLSYYGVSWVRQPPGKGLEWIGTIDSSGRTYYNPSLKSRVTISNDNAPNTVSLKLSSVTAADTAVYYCARDFYGWNSGALDIWGQGTLVTVSSASTKGPSVFPLAPSSKSTSGGTAALGCLVKDYFPEPVTVSWNSGALTSGVHTFPAVLQSSGLSLSSVVTVPSSSLGTQTYICNVNHKPSNTKVDKKVEPKSCDKTHTCPPCPAPELLGGPSVFLFPPKPKDTLMISRTPEVTCVVVDVSHEDPEVKFNWYVDGVEVHNAKTKPREEQYNSTYRVVSVLTVLHQDWLNGKEYKCKVSNKALPAPIEKTISKAKGQPREPQVYTLPPSREEMTKNQVSLTCLVKGFYPSDIAVEWESNGQPENNYKTTPPVLDSDGSFLYSKLTVDKSRWQQGNVFSCSVMHEALHNHYTQKSLSLSPGK
light: MDLQLTQSPSTLSASVGDRVTITCRASQSVYSNKYLSWYQQKPGKAPKLLIYKASTLASGVPSRFSGSGSGTEFTLTISSLQPDDFATYYCAAAYSDDSDTAFGQGTKVEIKRTVAAPSVFIFPPSDEQLKSGTASVVCLLNNFYPREAKVQWKVDNALQSGNSQESVTEQDSKDSTYSLSSTLTLSKADYEKHKVYACEVTHQGLSSPVTKSFNRGEC
modifications: conjugated to LP1 at Y180/F404
B1: the “DSF TM2 (° C.)” value in data set [1] was found to be 80.2 °C. In the data set with human TF, the “Biacore human TF single point off-rate kinetics kd” value stood at 0.000736 s⁻¹. Moreover, the “Biacore cynomolgus TF single point off-rate kinetics kd” value in the data set on cynomolgus TF turned out to be 0.0017 s⁻¹.

B2: SRP2901-B05 (antibody, V domains shown)
VH: MQVQVQESGPGLVKPPGTLSLTCAVSGFSLSYYGVSWVRQPPGKGLEWIGTIDSSGRTYYNPSLKSRVTISNDNAPNTVSLKLSSVTAADTAVYYCARDFYGWNSGALDIWGQGTLVTVSS
VL: MDLQLTQSPSTLSASVGDRVTITCRASQSVYSNKYLSWYQQKPGKAPKLLIYKASTLASGVPSRFSGSGSGTEFTLTISSLQPDDFATYYCAAAYSDDSDTAFGQGTKVEIK
For B2, in the data set on BxPC3 cells, the “BxPC3 Cell Killing Span (%)” value was 84% and the concentration giving a half-maximal response (EC50) was 0.059 nM.

B3: 2842-B01 HC3/LC1 (antibody)
heavy: MEVQLVESGGGLVQPGGSLRLSCAASGFSISSYDMSWVRQAPGKGLEWIGIIGSNGRTYYPDSVKGRFTISRDNSKNTVTLQMNSLRAEDTAVYYCARGLYDGTGNIWGQGTLVTVSSASTKGPSVFPLAPSSKSTSGGTAALGCLVKDYFPEPVTVSWNSGALTSGVHTFPAVLQSSGLSLSSVVTVPSSSLGTQTYICNVNHKPSNTKVDKKVEPKSCDKTHTCPPCPAPELLGGPSVFLFPPKPKDTLMISRTPEVTCVVVDVSHEDPEVKFNWYVDGVEVHNAKTKPREEQYNSTYRVVSVLTVLHQDWLNGKEYKCKVSNKALPAPIEKTISKAKGQPREPQVYTLPPSREEMTKNQVSLTCLVKGFYPSDIAVEWESNGQPENNYKTTPPVLDSDGSFLYSKLTVDKSRWQQGNVFSCSVMHEALHNHYTQKSLSLSPGK
light: MDLQMTQSPSSLSASVGDRVTITCRASQSVYGNNWLSWYQQKPGKAPKLLIYGASKLASGVPSRFSGSGSGTQFTLTISSLQPEDFATYYCQGTYYSGDWYFAFGQGTKVEIKRTVAAPSVFIFPPSDEQLKSGTASVVCLLNNFYPREAKVQWKVDNALQSGNSQESVTEQDSKDSTYSLSSTLTLSKADYEKHKVYACEVTHQGLSSPVTKSFNRGEC
modifications: conjugated to LP1 at Y180/F404
Regarding B3, the “DSF TM2 (° C.)” value in data set [1] stood at 86.5 °C. Besides, the “Biacore human TF single point off-rate kinetics kd” value with human TF came to 0.000416 s⁻¹. The “Biacore cynomolgus TF single point off-rate kinetics kd” value with cynomolgus TF came to 0.00187 s⁻¹.

B4: SRP2901-E03 (antibody, V domains shown)
VH: MEVQLVESGGGLVQPGGSLRLSCAASGFSISSYDMSWVRQAPGKGLEWIGIIGSNGRTYYPDSVKGRFTISRDNSKNTVTLQMNSLRAEDTAVYYCARGLYDGTGNIWGQGTLVTVSS
VL: MELVMTQSPPTLSLSPGERVTLSCRASQSVYGNNWLSWYQQKPGQAPRLLIYGASKLATSIPARFSGSGSGTQFTLTISSLQPEDFAVYYCQGTYYSGDWYFAFGQGTKVEIK
Take B4: in the data set with BxPC3 cells, the “BxPC3 Cell Killing Span (%)” value was 92.4% and the EC50 was determined as 0.166 nM.

B5: SRP2901-F01 (antibody, V domains shown)
VH: B4 VH with E2Q, L5V, Q14K, V38I, P61A, D73N, N74T, S75N, K76E, T80Y
VL: MDIQMTQSPSSLSASVGDRVTITCQASQSVYGNNWLSWYQQKPGKAPKLLIYGASKLASGVPSRFSGSGSGTDFTLTISSLQPEDFATYYCQGTYYSGDWYFAFGGGTKVEIK
On to B5, for which, in the data set on BxPC3 cells, the “BxPC3 Cell Killing Span (%)” value came out at 87% and the EC50 was 0.364 nM.

B6: SRP2901-D03 (antibody, V domains shown)
VH: B4 VH
VL: B5 VL with I3L, Q25R, D73Q, G106Q
Regarding B6, in the data set on BxPC3 cells, the “BxPC3 Cell Killing Span (%)” value turned out to be 77.4% and the EC50 was determined as 0.184 nM.
